Data published in publication PMC8844075, “Structural basis of neuropeptide Y signaling through Y1 receptor” (Nature Communications, 2022).

Experiments:
[1] = target: Y1R-eYFP (wild-type Y1R) (human) (UniProt P25929)
[2] = target: Y1R-eYFP (wild-type Y1R) (human) (UniProt P25929); remark: listed apart in the source

Y1R-eYFP (wild-type Y1R) (human), sequence (P25929 whole entry): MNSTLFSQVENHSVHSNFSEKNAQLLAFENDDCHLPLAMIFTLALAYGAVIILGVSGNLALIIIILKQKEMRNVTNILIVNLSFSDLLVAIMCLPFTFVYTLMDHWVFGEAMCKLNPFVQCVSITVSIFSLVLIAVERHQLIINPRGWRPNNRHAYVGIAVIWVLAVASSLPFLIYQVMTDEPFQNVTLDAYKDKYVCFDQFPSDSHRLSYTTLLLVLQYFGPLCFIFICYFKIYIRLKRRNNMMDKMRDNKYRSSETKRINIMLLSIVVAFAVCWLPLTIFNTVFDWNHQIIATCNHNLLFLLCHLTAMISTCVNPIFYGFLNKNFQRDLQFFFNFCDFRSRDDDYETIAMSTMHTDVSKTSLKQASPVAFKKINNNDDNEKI

signalling assay, increase of EC50 compared to NPY [1]	signalling assay (Ca2+), decrease in potency compared to full-length NPY [2]	Binder
64 fold	–	APLEPVYPGDNATPEQMAQYAADLRRYINMLTRPRY [pancreatic polypeptide (PP)]
–	300 fold	ARYYSALRHYINLITRQRY [NPY(18–36)]
